Results on seven proteins are retold here after patent US20210238260.

Data set [1] addresses T1, Factor VIIIa (FVIIIa), P00451.
T1 chain: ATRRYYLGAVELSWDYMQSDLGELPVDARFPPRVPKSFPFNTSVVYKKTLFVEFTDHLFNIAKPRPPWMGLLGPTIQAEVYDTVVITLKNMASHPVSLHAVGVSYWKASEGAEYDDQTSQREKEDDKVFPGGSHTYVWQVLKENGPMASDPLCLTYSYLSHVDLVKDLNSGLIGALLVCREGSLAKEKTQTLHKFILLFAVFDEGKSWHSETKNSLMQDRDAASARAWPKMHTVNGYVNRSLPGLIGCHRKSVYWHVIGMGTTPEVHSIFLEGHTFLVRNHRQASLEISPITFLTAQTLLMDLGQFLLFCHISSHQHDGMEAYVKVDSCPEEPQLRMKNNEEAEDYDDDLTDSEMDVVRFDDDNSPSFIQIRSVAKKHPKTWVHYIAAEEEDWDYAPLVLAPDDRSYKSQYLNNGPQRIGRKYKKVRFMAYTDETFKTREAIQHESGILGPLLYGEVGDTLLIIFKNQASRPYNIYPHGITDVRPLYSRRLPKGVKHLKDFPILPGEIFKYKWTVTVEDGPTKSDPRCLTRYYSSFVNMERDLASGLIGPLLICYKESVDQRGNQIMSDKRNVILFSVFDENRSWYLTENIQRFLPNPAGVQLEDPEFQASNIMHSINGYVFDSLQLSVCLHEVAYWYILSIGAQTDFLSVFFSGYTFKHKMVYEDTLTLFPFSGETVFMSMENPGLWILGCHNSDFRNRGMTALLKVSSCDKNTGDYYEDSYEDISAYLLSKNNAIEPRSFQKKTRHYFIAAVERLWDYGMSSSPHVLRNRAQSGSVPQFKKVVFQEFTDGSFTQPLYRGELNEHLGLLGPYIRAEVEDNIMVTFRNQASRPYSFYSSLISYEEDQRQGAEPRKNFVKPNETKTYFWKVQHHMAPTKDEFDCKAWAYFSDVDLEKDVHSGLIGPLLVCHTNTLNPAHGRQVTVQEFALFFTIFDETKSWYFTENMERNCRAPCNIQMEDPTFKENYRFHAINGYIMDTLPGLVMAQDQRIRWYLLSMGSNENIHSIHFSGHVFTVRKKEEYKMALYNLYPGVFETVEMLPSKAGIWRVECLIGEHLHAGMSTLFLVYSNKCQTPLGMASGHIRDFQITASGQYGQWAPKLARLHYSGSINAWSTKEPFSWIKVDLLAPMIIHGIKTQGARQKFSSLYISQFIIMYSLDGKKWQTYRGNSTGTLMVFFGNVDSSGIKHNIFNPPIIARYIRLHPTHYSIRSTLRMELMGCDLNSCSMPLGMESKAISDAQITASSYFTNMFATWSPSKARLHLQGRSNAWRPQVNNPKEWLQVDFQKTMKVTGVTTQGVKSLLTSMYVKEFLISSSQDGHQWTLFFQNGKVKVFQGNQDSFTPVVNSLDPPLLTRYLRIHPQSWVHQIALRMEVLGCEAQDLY

Data set [2] deals with plasma purified human AT-III (antithrombin III). As to the kind of experiment: AT-III/UFH inhibition K0.5, ratio to Catalyst Biosciences WT FIXa.
Data set [3] has as its target plasma purified human antithrombin III (AT-III), as complex with unfractionated heparin. As to the kind of experiment: ratio of K0.5 to Catalyst Biosciences WT FIXa, AT-III/UFH inhibition.

Chain of Factor X (FX), P00742 (P00742 whole entry, looked up): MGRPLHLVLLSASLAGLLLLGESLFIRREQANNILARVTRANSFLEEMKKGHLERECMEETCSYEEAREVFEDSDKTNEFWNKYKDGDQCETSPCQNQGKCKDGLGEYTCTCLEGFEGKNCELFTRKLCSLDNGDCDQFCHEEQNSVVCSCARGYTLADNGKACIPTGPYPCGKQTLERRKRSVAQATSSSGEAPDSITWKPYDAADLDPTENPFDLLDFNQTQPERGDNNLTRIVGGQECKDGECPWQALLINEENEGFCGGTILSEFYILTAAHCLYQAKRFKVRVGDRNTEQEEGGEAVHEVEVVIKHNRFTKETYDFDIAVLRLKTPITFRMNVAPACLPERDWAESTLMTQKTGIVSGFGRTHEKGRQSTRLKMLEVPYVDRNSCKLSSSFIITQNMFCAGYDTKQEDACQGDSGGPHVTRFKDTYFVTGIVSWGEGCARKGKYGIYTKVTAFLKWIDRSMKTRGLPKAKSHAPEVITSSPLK
Chain of Factor X, P00742 (P00742 whole entry, looked up): as above

B1: FIX of SEQ ID NO: 394, with the replacements R318Y/R338E/T343R (activated, FIXa) (protein)
chain 1: YNSGKLEEFVQGNLERECMEEKCSFEEAREVFENTERTTEFWKQYVDGDQCESNPCLNGGSCKDDINSYECWCPFGFEGKNCELDVTCNIKNGRCEQFCKNSADNKVVCSCTEGYRLAENQKSCEPAVPFPCGRVSVSQTSKLTR
chain 2: VVGGEDAKPGQFPWQVVLNGKVDAFCGGSIVNEKWIVTAAHCVETGVKITVVAGEHNIEETEHTEQKRNVIRIIPHHNYNAAINKYNHDIALLELDEPLVLNSYVTPICIADKEYTNIFLKFGSGYVSGWGRVFHKGYSALVLQYLRVPLVDRATCLESTKFRIYNNMFCAGFHEGGRDSCQGDSGGPHVTEVEGTSFLTGIISWGEECAMKGKYGIYTKVSRYVNWIKEKTKLT
In data set [1], B1 displayed an FIX activity, mean, Test 1, FVIIIa 0 ng/mL (no cofactor, baseline) of 1.24; an FIX activity, mean, Test 1, FVIIIa 5 ng/mL of 278; an FIX activity, mean, Test 2, FVIIIa 0 ng/mL (no cofactor, baseline) of 1.25; an FIX activity, mean, Test 2, FVIIIa 10 ng/mL of 479. Moreover, in data set [1], the FIX activity, mean, Test 3, FVIIIa 0 ng/mL (no cofactor, baseline) worked out at 1.28; the FIX activity, mean, Test 3, FVIIIa 15 ng/mL is 622; the Fold-increase after FVIIIa addition, Test 1 (5 ng/mL) was determined as 225 fold; the Fold-increase after FVIIIa addition, Test 2 (10 ng/mL) was 384 fold. For the same protein, in data set [1], the Fold-increase after FVIIIa addition, Test 3 (15 ng/mL) stood at 486 fold; the Ratio (CB2679d vs BeneFIX FIX) of FIX activity, Test 1, FVIIIa 0 ng/mL (no cofactor) worked out at 1.3; the Ratio (CB2679d vs BeneFIX FIX) of FIX activity, Test 1, FVIIIa 5 ng/mL was 2; the Ratio (CB2679d vs BeneFIX FIX) of FIX activity, Test 2, FVIIIa 0 ng/mL (no cofactor) was found to be 1.4. Further, in data set [1], the Ratio (CB2679d vs BeneFIX FIX) of FIX activity, Test 2, FVIIIa 10 ng/mL came out at 2; the Ratio (CB2679d vs BeneFIX FIX) of FIX activity, Test 3, FVIIIa 0 ng/mL (no cofactor) is 1.3; the Ratio (CB2679d vs BeneFIX FIX) of FIX activity, Test 3, FVIIIa 15 ng/mL was 2. Further, in the data set with Factor X (FX), P00742, the Cofactor-Dependent Indirect kcat/KM came to 1.2e+08 M⁻¹ s⁻¹; the Fold Change, In Vitro Assays: Pro-coagulant Activity was determined as 2.8 fold; the Fold Increase over BeneFIX FIX (Cofactor-Dependent Indirect kcat/KM) amounted to 2.8 fold.

B2: FIXa-Y259F/K265T/Y345T (protein)
chain 1: YNSGKLEEFVQGNLERECMEEKCSFEEAREVFENTERTTEFWKQYVDGDQCESNPCLNGGSCKDDINSYECWCPFGFEGKNCELDVTCNIKNGRCEQFCKNSADNKVVCSCTEGYRLAENQKSCEPAVPFPCGRVSVSQTSKLTR
chain 2: VVGGEDAKPGQFPWQVVLNGKVDAFCGGSIVNEKWIVTAAHCVETGVKITVVAGEHNIEETEHTEQKRNVIRIIPHHNFNAAINTYNHDIALLELDEPLVLNSYVTPICIADKEYTNIFLKFGSGYVSGWGRVFHKGRSALVLQYLRVPLVDRATCLRSTKFTITNNMFCAGFHEGGRDSCQGDSGGPHVTEVEGTSFLTGIISWGEECAMKGKYGIYTKVSRYVNWIKEKTKLT
Regarding B2, the K0.5-mut/K0.5-wt in data set [2] and in data set [3] was 0.3 each time.

B3: FIXa-K228N/K247N/N249S (protein)
chain 1: YNSGKLEEFVQGNLERECMEEKCSFEEAREVFENTERTTEFWKQYVDGDQCESNPCLNGGSCKDDINSYECWCPFGFEGKNCELDVTCNIKNGRCEQFCKNSADNKVVCSCTEGYRLAENQKSCEPAVPFPCGRVSVSQTSKLTR
chain 2: VVGGEDAKPGQFPWQVVLNGKVDAFCGGSIVNEKWIVTAAHCVETGVNITVVAGEHNIEETEHTEQNRSVIRIIPHHNYNAAINKYNHDIALLELDEPLVLNSYVTPICIADKEYTNIFLKFGSGYVSGWGRVFHKGRSALVLQYLRVPLVDRATCLRSTKFTIYNNMFCAGFHEGGRDSCQGDSGGPHVTEVEGTSFLTGIISWGEECAMKGKYGIYTKVSRYVNWIKEKTKLT
By KM is commonly meant the substrate concentration at which the rate is half of its maximum. One may read the kcat/KM as the second-order rate constant that governs catalysis at low substrate concentration. Turning to B3, in the data set with Factor X, P00742, the “% of WT kcat/KM” value was determined as 86%, the KM is 0.0945 µM and the specificity constant (kcat/KM) came to 3.8e+07 M⁻¹ s⁻¹. For the same protein, in data set [2], the K0.5-mut/K0.5-wt was determined as 4.4. The K0.5-mut/K0.5-wt in data set [3] was found to be 4.4.

B4: FIXa-R318Y/R338E/E410S (protein)
chain 1: YNSGKLEEFVQGNLERECMEEKCSFEEAREVFENTERTTEFWKQYVDGDQCESNPCLNGGSCKDDINSYECWCPFGFEGKNCELDVTCNIKNGRCEQFCKNSADNKVVCSCTEGYRLAENQKSCEPAVPFPCGRVSVSQTSKLTR
chain 2: VVGGEDAKPGQFPWQVVLNGKVDAFCGGSIVNEKWIVTAAHCVETGVKITVVAGEHNIEETEHTEQKRNVIRIIPHHNYNAAINKYNHDIALLELDEPLVLNSYVTPICIADKEYTNIFLKFGSGYVSGWGRVFHKGYSALVLQYLRVPLVDRATCLESTKFTIYNNMFCAGFHEGGRDSCQGDSGGPHVTEVEGTSFLTGIISWGEECAMKGKYGIYTKVSRYVNWIKSKTKLT
Consider B4, for which, in the data set with Factor X, P00742, the “% of WT kcat/KM” value is on record as 730%, the KM was found to be 0.0164 µM and the kcat/KM was 3.3e+08 M⁻¹ s⁻¹. In addition, the K0.5-mut/K0.5-wt in data set [2] was 279. The K0.5-mut/K0.5-wt in data set [3] came to 279.

B5: FIXa-I251S/R318Y/R338E/E410N (protein)
chain 1: YNSGKLEEFVQGNLERECMEEKCSFEEAREVFENTERTTEFWKQYVDGDQCESNPCLNGGSCKDDINSYECWCPFGFEGKNCELDVTCNIKNGRCEQFCKNSADNKVVCSCTEGYRLAENQKSCEPAVPFPCGRVSVSQTSKLTR
chain 2: VVGGEDAKPGQFPWQVVLNGKVDAFCGGSIVNEKWIVTAAHCVETGVKITVVAGEHNIEETEHTEQKRNVSRIIPHHNYNAAINKYNHDIALLELDEPLVLNSYVTPICIADKEYTNIFLKFGSGYVSGWGRVFHKGYSALVLQYLRVPLVDRATCLESTKFTIYNNMFCAGFHEGGRDSCQGDSGGPHVTEVEGTSFLTGIISWGEECAMKGKYGIYTKVSRYVNWIKNKTKLT
As a reminder, the kcat is the number of substrate molecules converted per active site and unit of time at saturation. For B5, in the data set with Factor X (FX), P00742, the “% of WT kcat/KM” value stood at 849%, the kcat was found to be 6.2 s⁻¹ and the kcat/KM is 3.9e+08 M⁻¹ s⁻¹. Further, in the data set with Factor X, P00742, the “% of WT kcat/KM” value came to 851%, the KM is 0.0162 µM and the catalytic efficiency (kcat/KM) amounted to 3.8e+08 M⁻¹ s⁻¹. In data set [2], the K0.5-mut/K0.5-wt came to 303. For the same protein, the K0.5-mut/K0.5-wt in data set [3] was found to be 303.

B6: FIXa-D104N/K106S/K228N/K247N/N249S (protein)
chain 1: YNSGKLEEFVQGNLERECMEEKCSFEEAREVFENTERTTEFWKQYVDGDQCESNPCLNGGSCKDDINSYECWCPFGFEGKNCELDVTCNIKNGRCEQFCKNSANNSVVCSCTEGYRLAENQKSCEPAVPFPCGRVSVSQTSKLTR
chain 2: VVGGEDAKPGQFPWQVVLNGKVDAFCGGSIVNEKWIVTAAHCVETGVNITVVAGEHNIEETEHTEQNRSVIRIIPHHNYNAAINKYNHDIALLELDEPLVLNSYVTPICIADKEYTNIFLKFGSGYVSGWGRVFHKGRSALVLQYLRVPLVDRATCLRSTKFTIYNNMFCAGFHEGGRDSCQGDSGGPHVTEVEGTSFLTGIISWGEECAMKGKYGIYTKVSRYVNWIKEKTKLT
Take B6: in the data set with Factor X (FX), P00742, the catalytic constant (kcat) was found to be 1.7 s⁻¹ and the kcat of FX activation by FIXa (Xase complex with FVIIIa, PC/PS vesicles, Ca2+) came to 1.7 s⁻¹. The K0.5-mut/K0.5-wt in data set [2] was determined as 2.1. The K0.5-mut/K0.5-wt in data set [3] was 2.1.

B7: FIXa-D104N/K106S/I251S/R318Y/R338E/E410N (protein)
chain 1: YNSGKLEEFVQGNLERECMEEKCSFEEAREVFENTERTTEFWKQYVDGDQCESNPCLNGGSCKDDINSYECWCPFGFEGKNCELDVTCNIKNGRCEQFCKNSANNSVVCSCTEGYRLAENQKSCEPAVPFPCGRVSVSQTSKLTR
chain 2: VVGGEDAKPGQFPWQVVLNGKVDAFCGGSIVNEKWIVTAAHCVETGVKITVVAGEHNIEETEHTEQKRNVSRIIPHHNYNAAINKYNHDIALLELDEPLVLNSYVTPICIADKEYTNIFLKFGSGYVSGWGRVFHKGYSALVLQYLRVPLVDRATCLESTKFTIYNNMFCAGFHEGGRDSCQGDSGGPHVTEVEGTSFLTGIISWGEECAMKGKYGIYTKVSRYVNWIKNKTKLT
In the case of B7, in the data set with Factor X, P00742, the “% of WT kcat/KM” value came out at 300%, the KM was determined as 0.0243 µM and the catalytic efficiency (kcat/KM) turned out to be 1.3e+08 M⁻¹ s⁻¹. For the same protein, the K0.5-mut/K0.5-wt in data set [2] is 464. Further, the K0.5-mut/K0.5-wt in data set [3] was determined as 464.
